The text below walks through data of patent US20130123460A1 (SANWA KAGAKU KENKYUSHO, published 2013).

Where no end group is shown, it is not given here.

For the assay, the target named is endogenous VIP receptor of SUP-T1 cells (human). The assay is described as follows: cell-based or functional assay.

Regarding HSDAVFTDNYTRLRKQMAVKKYLNSILN-NH2 [VIP(1-28)-NH2], the “cAMP Productivity in SUP-T1 Cells, Activity Intensity (%) relative to native VIP” value worked out at 100%.
